Measurements reported in patent publication US20050256058A1.
Numbered stars: 1 amine (or outer) side, 2 acyl side, 3 side chain; on linkers, the order of the positions; unused ones are H or OH. Square brackets hold non-standard residues; d marks the D form. * marks the point of attachment. CH═CH‑CON(CH3)CH2CH2Ph = CN(CCc1ccccc1)C(=O)/C=C/*; AAsp = aza-Asp, O=C(N(CC(=O)[*:3])N[*:1])[*:2]; CH═CH‑COOCH2Ph = O=C(/C=C/*)OCc1ccccc1; CH:CH‑COOEt = CCOC(=O)/C=C/*; Cbz = O=C(OCc1ccccc1)*

T1: Caspase-2 (UniProt P42575)
T1 sequence (looked up): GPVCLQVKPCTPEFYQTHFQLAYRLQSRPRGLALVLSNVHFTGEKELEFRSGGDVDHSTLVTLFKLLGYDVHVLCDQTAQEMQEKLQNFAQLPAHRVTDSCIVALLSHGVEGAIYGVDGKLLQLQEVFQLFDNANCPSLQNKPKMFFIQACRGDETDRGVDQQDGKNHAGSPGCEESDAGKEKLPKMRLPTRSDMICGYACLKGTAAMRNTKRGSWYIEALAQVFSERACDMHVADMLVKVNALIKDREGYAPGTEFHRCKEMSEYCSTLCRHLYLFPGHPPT

T2: Caspase-6 (UniProt P55212)
T2 sequence (looked up): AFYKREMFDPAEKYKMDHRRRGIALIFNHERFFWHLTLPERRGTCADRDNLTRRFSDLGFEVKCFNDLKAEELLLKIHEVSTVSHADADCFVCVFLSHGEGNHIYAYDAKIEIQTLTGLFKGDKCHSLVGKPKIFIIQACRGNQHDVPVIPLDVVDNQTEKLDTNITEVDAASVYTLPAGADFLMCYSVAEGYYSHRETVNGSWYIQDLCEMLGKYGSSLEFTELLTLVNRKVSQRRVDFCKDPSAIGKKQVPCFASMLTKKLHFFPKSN

T3: Caspase-7 (UniProt P55210)
T3 sequence (looked up): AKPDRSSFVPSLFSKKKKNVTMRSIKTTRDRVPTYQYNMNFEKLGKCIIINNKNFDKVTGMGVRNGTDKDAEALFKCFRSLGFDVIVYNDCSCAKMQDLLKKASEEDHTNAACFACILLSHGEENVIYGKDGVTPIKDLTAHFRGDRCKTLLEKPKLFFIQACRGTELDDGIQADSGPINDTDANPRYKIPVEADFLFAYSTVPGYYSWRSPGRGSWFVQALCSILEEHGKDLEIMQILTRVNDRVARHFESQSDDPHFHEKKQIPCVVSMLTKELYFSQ

T4: Caspase-3 (UniProt P42574)
T4 sequence (looked up): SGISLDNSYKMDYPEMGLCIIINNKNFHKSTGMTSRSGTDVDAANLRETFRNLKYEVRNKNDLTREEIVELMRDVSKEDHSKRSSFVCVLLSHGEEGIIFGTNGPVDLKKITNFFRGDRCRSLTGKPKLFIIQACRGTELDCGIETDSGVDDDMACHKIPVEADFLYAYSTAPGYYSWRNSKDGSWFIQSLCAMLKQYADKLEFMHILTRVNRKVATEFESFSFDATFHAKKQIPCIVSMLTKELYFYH

T5: Caspase-10 (UniProt Q92851)
T5 sequence (looked up): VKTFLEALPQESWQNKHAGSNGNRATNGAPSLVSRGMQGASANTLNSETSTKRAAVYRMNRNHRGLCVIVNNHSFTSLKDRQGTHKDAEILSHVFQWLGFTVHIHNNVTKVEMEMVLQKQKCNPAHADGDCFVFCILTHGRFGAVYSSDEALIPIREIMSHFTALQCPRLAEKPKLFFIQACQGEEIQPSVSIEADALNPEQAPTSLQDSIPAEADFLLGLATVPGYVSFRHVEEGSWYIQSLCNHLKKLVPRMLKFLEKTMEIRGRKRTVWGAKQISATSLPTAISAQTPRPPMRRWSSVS

T6: Caspase-9, P55211
T6 chain: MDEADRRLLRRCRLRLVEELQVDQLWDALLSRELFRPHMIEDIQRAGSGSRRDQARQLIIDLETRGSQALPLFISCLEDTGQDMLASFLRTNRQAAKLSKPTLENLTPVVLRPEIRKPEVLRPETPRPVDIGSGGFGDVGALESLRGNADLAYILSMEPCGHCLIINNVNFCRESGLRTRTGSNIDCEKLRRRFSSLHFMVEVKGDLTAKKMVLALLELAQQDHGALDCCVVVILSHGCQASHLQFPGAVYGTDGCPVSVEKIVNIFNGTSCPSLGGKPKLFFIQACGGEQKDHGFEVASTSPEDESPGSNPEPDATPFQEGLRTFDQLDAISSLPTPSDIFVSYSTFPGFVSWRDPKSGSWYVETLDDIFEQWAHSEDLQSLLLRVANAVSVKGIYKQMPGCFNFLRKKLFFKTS

T7: Caspase-7, P55210
T7 chain: T3 sequence (looked up)

T8: Caspase-2, P42575
T8 chain: T1 sequence (looked up)

T9: Caspase-8, Q14790
T9 chain: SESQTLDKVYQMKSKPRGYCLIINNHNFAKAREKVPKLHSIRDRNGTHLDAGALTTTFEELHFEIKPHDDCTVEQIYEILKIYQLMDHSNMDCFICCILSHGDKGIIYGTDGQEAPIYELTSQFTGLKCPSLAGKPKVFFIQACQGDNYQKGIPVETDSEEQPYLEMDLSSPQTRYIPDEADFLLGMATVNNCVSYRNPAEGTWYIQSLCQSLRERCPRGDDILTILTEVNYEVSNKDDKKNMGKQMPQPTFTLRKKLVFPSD

T10: calpain I from porcine erythrocytes (porcine), P35750
T10 chain: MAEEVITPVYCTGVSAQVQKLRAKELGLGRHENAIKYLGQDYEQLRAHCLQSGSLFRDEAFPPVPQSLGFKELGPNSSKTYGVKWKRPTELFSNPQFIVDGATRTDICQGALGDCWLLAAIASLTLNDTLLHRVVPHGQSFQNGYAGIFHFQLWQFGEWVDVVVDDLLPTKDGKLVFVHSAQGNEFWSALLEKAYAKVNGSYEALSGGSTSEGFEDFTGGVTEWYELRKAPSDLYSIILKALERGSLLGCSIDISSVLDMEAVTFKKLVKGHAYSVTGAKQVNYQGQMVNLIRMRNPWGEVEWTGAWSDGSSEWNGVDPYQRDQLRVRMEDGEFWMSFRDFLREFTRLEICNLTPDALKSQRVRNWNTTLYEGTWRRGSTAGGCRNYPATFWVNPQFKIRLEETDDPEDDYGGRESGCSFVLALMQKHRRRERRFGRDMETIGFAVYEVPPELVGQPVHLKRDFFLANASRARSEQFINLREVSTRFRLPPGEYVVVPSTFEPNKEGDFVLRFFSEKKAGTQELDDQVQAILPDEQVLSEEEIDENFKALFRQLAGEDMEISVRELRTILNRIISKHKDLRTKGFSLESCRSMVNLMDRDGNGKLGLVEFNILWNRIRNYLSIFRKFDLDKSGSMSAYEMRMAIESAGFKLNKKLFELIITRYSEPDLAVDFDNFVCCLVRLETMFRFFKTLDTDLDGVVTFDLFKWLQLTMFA

T11: Caspase-3, P42574
T11 chain: T4 sequence (looked up)

T12: Caspase-10, Q92851
T12 chain: T5 sequence (looked up)

T13: Caspase-6, P55212
T13 chain: T2 sequence (looked up)

B1: Cbz-Val-Glu-Val-AAsp-CH═CH-COOEt (peptide)
peptide: Cbz-VEV[AAsp]-{CH:CH‑COOEt}
SMILES: CCOC(=O)/C=C/C(=O)N(CC(=O)O)NC(=O)[C@@H](NC(=O)[C@H](CCC(=O)O)NC(=O)[C@@H](NC(=O)OCc1ccccc1)C(C)C)C(C)C
B2: Cbz-Ile-Glu-Thr-AAsp-CH═CH-CON(CH3)CH2CH2Ph (peptide)
peptide: Cbz-IET[AAsp]-{CH═CH‑CON(CH3)CH2CH2Ph}
SMILES: CC[C@H](C)[C@H](NC(=O)OCc1ccccc1)C(=O)N[C@@H](CCC(=O)O)C(=O)N[C@H](C(=O)NN(CC(=O)O)C(=O)/C=C/C(=O)N(C)CCc1ccccc1)[C@@H](C)O
B3: Cbz-Ile-Glu-Thr-AAsp-CH═CH-COOCH2Ph (peptide)
peptide: Cbz-IET[AAsp]-{CH═CH‑COOCH2Ph}
SMILES: CC[C@H](C)[C@H](NC(=O)OCc1ccccc1)C(=O)N[C@@H](CCC(=O)O)C(=O)N[C@H](C(=O)NN(CC(=O)O)C(=O)/C=C/C(=O)OCc1ccccc1)[C@@H](C)O

target: T1, Caspase-2; assay: cell-based or functional assay

Binder | k2
B1 | 115 M⁻¹ s⁻¹
B2 | 38 M⁻¹ s⁻¹
B3 | 110 M⁻¹ s⁻¹

target: Caspase-9 (UniProt P55211); assay: cell-based or functional assay

Binder | k2
B1 | 340 M⁻¹ s⁻¹
B2 | 760 M⁻¹ s⁻¹

target: T2, Caspase-6; assay: cell-based or functional assay

Binder | k2
B1 | 83600 M⁻¹ s⁻¹
B3 | 23400 M⁻¹ s⁻¹

target: T3, Caspase-7; assay: cell-based or functional assay

Binder | k2
B1 | 3650 M⁻¹ s⁻¹
B2 | 1020 M⁻¹ s⁻¹
B3 | 660 M⁻¹ s⁻¹

target: T4, Caspase-3; assay: cell-based or functional assay

Binder | k2
B1 | 41200 M⁻¹ s⁻¹
B2 | 5480 M⁻¹ s⁻¹
B3 | 2300 M⁻¹ s⁻¹

target: T5, Caspase-10; assay: cell-based or functional assay

Binder | k2
B1 | 6600 M⁻¹ s⁻¹
B2 | 8770 M⁻¹ s⁻¹
B3 | 15200 M⁻¹ s⁻¹

target: Caspase-8 (UniProt Q14790); assay: cell-based or functional assay

Binder | k2
B1 | 176000 M⁻¹ s⁻¹
B2 | 60500 M⁻¹ s⁻¹
B3 | 148000 M⁻¹ s⁻¹

Target: T6, Caspase-9, P55211
Assay: cell-based or functional assay

Binder | k2
LETD (modifications not checked) [Cbz-Leu-Glu-Thr-AAsp-CH═CH-COOEt] | 37 M⁻¹ s⁻¹
DEVD (modifications not checked) [Cbz-Asp-Glu-Val-AAsp-CH═CH-CONHCH2Ph] | 2010 M⁻¹ s⁻¹

Target: T7, Caspase-7, P55210
Assay: cell-based or functional assay

Binder | k2
DEVD (modifications not checked) [Cbz-Asp-Glu-Val-AAsp-CH═CH-CONHCH2Ph] | 249000 M⁻¹ s⁻¹
DEVD (modifications not checked) [Cbz-Asp-Glu-Val-AAsp-CH═CH-COOCH2Ph] | 114000 M⁻¹ s⁻¹
DEVD (modifications not checked) [Cbz-Asp-Glu-Val-AAsp-CH═CH-COOEt (trans)] | 239000 M⁻¹ s⁻¹

Target: T8, Caspase-2, P42575
Assay: cell-based or functional assay

Binder | k2
DEVD (modifications not checked) [Cbz-Asp-Glu-Val-AAsp-CH═CH-COOEt (trans)] | 2640 M⁻¹ s⁻¹

Target: T9, Caspase-8, Q14790
Assay: cell-based or functional assay

Binder | k2
LETD (modifications not checked) [Cbz-Leu-Glu-Thr-AAsp-CH═CH-COOEt] | 237000 M⁻¹ s⁻¹
DEVD (modifications not checked) [Cbz-Asp-Glu-Val-AAsp-CH═CH-CONHCH2Ph] | 78200 M⁻¹ s⁻¹
DEVD (modifications not checked) [Cbz-Asp-Glu-Val-AAsp-CH═CH-COOCH2Ph] | 121000 M⁻¹ s⁻¹
DEVD (modifications not checked) [Cbz-Asp-Glu-Val-AAsp-CH═CH-COOEt (trans)] | 273000 M⁻¹ s⁻¹

Target: T10, calpain I from porcine erythrocytes …
Assay: cell-based or functional assay

Binder | k2
LETD (modifications not checked) [Cbz-Leu-Glu-Thr-AAsp-CH═CH-COOEt] | < 10 M⁻¹ s⁻¹

Target: T11, Caspase-3, P42574
Assay: cell-based or functional assay

Binder | k2
LETD (modifications not checked) [Cbz-Leu-Glu-Thr-AAsp-CH═CH-COOEt] | 5560 M⁻¹ s⁻¹
DEVD (modifications not checked) [Cbz-Asp-Glu-Val-AAsp-CH═CH-CONHCH2Ph] | 1.75e+06 M⁻¹ s⁻¹
DEVD (modifications not checked) [Cbz-Asp-Glu-Val-AAsp-CH═CH-COOCH2Ph] | 1.7e+06 M⁻¹ s⁻¹
DEVD (modifications not checked) [Cbz-Asp-Glu-Val-AAsp-CH═CH-COOEt (trans)] | 2.13e+06 M⁻¹ s⁻¹

Target: T12, Caspase-10, Q92851
Assay: cell-based or functional assay

Binder | k2
DEVD (modifications not checked) [Cbz-Asp-Glu-Val-AAsp-CH═CH-CONHCH2Ph] | 19400 M⁻¹ s⁻¹
DEVD (modifications not checked) [Cbz-Asp-Glu-Val-AAsp-CH═CH-COOCH2Ph] | 28300 M⁻¹ s⁻¹
DEVD (modifications not checked) [Cbz-Asp-Glu-Val-AAsp-CH═CH-COOEt (trans)] | 49900 M⁻¹ s⁻¹

target: Cathepsin B; assay: cell-based or functional assay

Binder | k2
LETD (modifications not checked) [Cbz-Leu-Glu-Thr-AAsp-CH═CH-COOEt] | < 10 M⁻¹ s⁻¹

Target: T13, Caspase-6, P55212
Assay: cell-based or functional assay

Binder | k2
LETD (modifications not checked) [Cbz-Leu-Glu-Thr-AAsp-CH═CH-COOEt] | 18700 M⁻¹ s⁻¹
DEVD (modifications not checked) [Cbz-Asp-Glu-Val-AAsp-CH═CH-CONHCH2Ph] | 3210 M⁻¹ s⁻¹
DEVD (modifications not checked) [Cbz-Asp-Glu-Val-AAsp-CH═CH-COOCH2Ph] | 8470 M⁻¹ s⁻¹
DEVD (modifications not checked) [Cbz-Asp-Glu-Val-AAsp-CH═CH-COOEt (trans)] | 35600 M⁻¹ s⁻¹
